B1: ROR2 clone #159 scFv phage antibody (scFv, V domains shown)
VH: QMQLVQSGAEVKKPGASVKVSCKASGYTFTSYYMHWVRQAPGQGLEWMGIINPSGGSTSYAQKFQGRVTMTRDTSTSTVYMELSSLRSEDTAVYYCARGGYTGWSPSDPWGQGTLVTVSS
VL: QSALTQPASVSGSPGQSITISCTGTSSDVGGYNYVSWYQQHPGKAPKFMIYDVSKRPSGVSNRFSGSKSGNTASLTISGLQAEDEADYYCGSFTSSITYVFGTGTKVTVLG
notes: also called ROR2-159
B2: ROR2 clone #016 scFv phage antibody (scFv, V domains shown)
VH: EVQLVQSGAEVKKPGASVKVSCKASGYTFTDYYIHWVRQAPGQGLEWMGWMNPNSGNSVSAQKFQGRVTMTRDTSINTAYMELSSLTSDDTAVYYCARNSEWHPWGYYDYWGQGTLVTVSS
VL: SSELTQDPAVSVALGQTVRITCQGDSLRSYYASWYQQKPGQAPVLVIYGKNNRPSGIPDRFSGSSSGNTASLTITGAQAEDEADYYCNSRDSSGNHLVFGGGTKLTVLG
notes: also called clone #16; ROR2-16
B3: ROR2 clone #173 scFv phage antibody (scFv, V domains shown)
VH: QVQLVQSGAEVKKPGASVKVSCKASGYTFTSYGISWVRQAPGQGLEWMGWISAYNGNTNYAQKLQGRVTMTTDTSTSTAYMELRSLRSDDTAVYYCARHLGPMGMYDWSFDKWGQGTLVTVSS
VL: QSVLTQPPSVSVAPGKTARITCGGDNIGRKSVHWYQQKPGQAPVLVIYYDSDRPSGIPERFSGSTSGNTATLTISRVEAGDEADYYCQVWDRSSDLYVFGTGTKVTVLG
notes: also called ROR2-173
B4: ROR2 clone #096 scFv phage antibody (scFv, V domains shown)
VH: EVQLVQSGGGLVQPGGSLRLSCAASGFSLNDYYMDWVRQAPGEGLEWVGRIRDKAHGDTTEYIASVKDRFIVSRDDSKNSLYLQMNSLKTEDTAMYYCARWVDDYQGYWIWSYHDFWGQGTLVTVSS
VL: EIVLTQSPLSLPVTLGQPASISCRSSQSLAYSDGNTYLNWFHQRPGQSPRRLIYKVSKRDSGVPDRFSGSGSGTDFTLRISRVEAEDVGIYYCMQGTHWPHTFGPGTKVDIKR
notes: also called clone #96; ROR2-96
B5: ROR2 clone #093 scFv phage antibody (scFv, V domains shown)
VH: QMQLVQSGGGVVQPGRSLRLSCAASGFTFSNYDMHWVRRAPGKGLEWVAVISYDGSNNYYADSVKGRFTISRDNSKNTLYLQMNSLRAEDTAVYYCARSSAWVGGGFLSGTDDWGQGTLVTVSS
VL: EIVMTQSPATLSLSPGERATLSCGASQSVSSSYLAWYQQKPGLAPRLLIYDTSRRATGIPDRFSGSGSGTDFTLTISRLEPEDFAVYYCLHYGRSPPVTFGGGTKVEIKR
notes: also called clone #93; ROR2-93
B6: ROR2 clone #084 scFv phage antibody (scFv, V domains shown)
VH: QVQLVESGGGLVQPGGSLRLSCAASGFTFSSYWMSWVRQAPGKGLEWVANIKQDGSEKYYVDSVRGRFTISRDNAKNSLYLQMNSLRAEDTAMYYCARGSFSYDSDLWGQGTLVTVSS
VL: DVVMTQSPLSLPVTLGQPASISCRSSQSLVHSDGNTYLNWFQQRPGQSPRRLIYKVSSRDSGVPDRFSGTGSGTDFTLKISRVEAEDVGVYYCMQTTHWPPTFGQGTKVEIKR
notes: also called clone #84; ROR2-84
B7: ROR2 clone #121 scFv phage antibody (scFv, V domains shown)
VH: QVQLVQSGGGLVQPGGSLRLSCAATGFTFSSYAMSWVRQAPGKGLEWVSVISGSGGSTYYADSVKGRFTISRDNSKNTLYLQMNSLRADDTAVYYCARHYYSSDSWGQGTLVTVSS
VL: SYVLTQPPSVSVSPGQTASVTCSGYRLREKYVSWYQQRPGHSPVLVIYEDTKRPSGIPERFSGSNSGDTATLTIRGTQAIDEADYYCQAWDSSVIFGGGTKLTVLG
notes: also called ROR2-121
B8: ROR2 clone #024 scFv phage antibody (scFv, V domains shown)
VH: EVQLVQSGAEVKKPGESLKISCKASGYSFSNYWIGWVRQMPGKGLEWMGIIYPDDSDTRYSPSVQGQVTISADKSISTAYLQWYSLKVADTAKYYCVRPRGAFDIWGQGTTVTVSS
VL: EIVMTQSPATLSVSPGESATLSCRASQGVGINLAWYQQRPGQPPRLLIYDASNRATGIPARFSGSGSGTDFTLTISSLQAEDVAVYYCQQYYSFPWTFGQGTKVEIKR
notes: also called clone #24; ROR2-24

For the first assay, the target named is T1, human ROR1 ECD-Fc fusion protein (human, UniProt Q01973 30-406).
T1 construct: not shown: Fc part and any linker are not described
T1 sequence (Q01973 30-406): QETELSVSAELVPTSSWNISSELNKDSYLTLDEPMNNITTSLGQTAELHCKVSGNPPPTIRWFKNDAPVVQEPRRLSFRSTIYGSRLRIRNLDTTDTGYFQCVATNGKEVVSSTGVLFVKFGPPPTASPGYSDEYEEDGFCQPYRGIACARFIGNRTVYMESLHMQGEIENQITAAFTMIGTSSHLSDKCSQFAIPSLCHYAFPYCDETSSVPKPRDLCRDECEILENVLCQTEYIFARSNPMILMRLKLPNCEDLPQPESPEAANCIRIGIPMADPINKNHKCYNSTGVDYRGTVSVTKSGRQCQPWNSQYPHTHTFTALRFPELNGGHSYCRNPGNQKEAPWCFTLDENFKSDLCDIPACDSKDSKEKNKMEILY
As to the kind of experiment: summary of the phage clone screening (ELISA). (ELISA stands for enzyme-linked immunosorbent assay.)
With B1, the binding result is “binds”.

On to B2, for which the binding result is on record as “binds”.

The target of another assay is T2, human ROR2 ECD-Fc fusion protein (human, UniProt Q01974 34-403).
T2 construct: Panning and phage ELISA antigen; also called human ROR2-ECD (phage ELISA); not shown: Fc part and any linker are not described
T2 sequence (Q01974 34-403): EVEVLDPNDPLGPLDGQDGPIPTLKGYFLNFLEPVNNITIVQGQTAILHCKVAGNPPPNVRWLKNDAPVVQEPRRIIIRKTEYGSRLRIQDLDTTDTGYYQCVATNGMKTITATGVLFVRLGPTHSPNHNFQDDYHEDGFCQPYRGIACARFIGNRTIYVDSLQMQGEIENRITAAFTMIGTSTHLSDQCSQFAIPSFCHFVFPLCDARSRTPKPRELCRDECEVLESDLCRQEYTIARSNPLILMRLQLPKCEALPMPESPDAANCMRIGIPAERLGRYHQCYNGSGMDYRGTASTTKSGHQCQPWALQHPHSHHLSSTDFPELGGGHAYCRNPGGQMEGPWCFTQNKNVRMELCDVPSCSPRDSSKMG
The assay is described as follows: summary of the phage clone screening (ELISA).
Consider B3, for which the binding result is recorded as “binds”.

As for B4, the binding result is reported as “binds”.

In the case of B1, the binding result was “binds”.

B5: the binding result was “binds”.

Take B6: the binding result is reported as “binds”.

As for B2, the binding result is “binds”.

Turning to B7, the binding result was “binds”.

A further assay concerns the target T2, human ROR2 ECD-Fc fusion protein. The assay is described as follows: phage ELISA on coated ROR2 ECD-Fc.
Turning to B8, the binding result is given as “binds”.

These data come from patent publication US20180127503A1 (EUREKA THERAPEUTICS, published 2018).
